{
  "source": "patent US20220259281A1",
  "molecular_target": "human CD40 (human) (UniProt P25942)",
  "sequence (P25942 21-277)": "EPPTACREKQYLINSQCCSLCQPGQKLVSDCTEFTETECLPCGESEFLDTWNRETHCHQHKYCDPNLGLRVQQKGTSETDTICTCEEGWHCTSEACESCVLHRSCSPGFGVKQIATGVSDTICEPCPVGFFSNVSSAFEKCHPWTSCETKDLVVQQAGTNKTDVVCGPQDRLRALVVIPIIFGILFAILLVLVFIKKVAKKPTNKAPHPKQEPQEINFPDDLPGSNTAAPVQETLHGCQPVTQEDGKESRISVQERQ",
  "assay": "flow cytometry on PATHHUNTER U2OS-NIK/NFkB reporter cells; isotype control; beside it Unstained 56.7 and hCD40-APC 16805",
  "data": [
    {"substance": "APC Isotype (antibody)", "values": [
      {"measurement": "MFI-APC", "value": 2160}
    ]}
  ]
}
